Measured values as given in patent US20140295512A1, “Ketol-Acid Reductoisomerases With Improved Performance Properties” (CALIFORNIA INSTITUTE OF TECHNOLOGY, priority 2011, published 2014).
Substitutions are numbered along the chain they refer to. In names and notes the source's numbering stands.

B1: Zm: Zymomonas mobilis KARI homolog (protein, UniProt Q9X5F8 1-339, looked up)
Ketol-acid reductoisomerase …: MKVYYDSDADLGLIKSKKIAILGYGSQGHAHAQNLRDSGVAEVAIALRPDSASVKKAQDAGFKVLTNAEAAKWADILMILAPDEHQAAIYAEDLKDNLRPGSAIAFAHGLNIHFGLIEPRKDIDVFMIAPKGPGHTVRSEYVRGGGVPCLVAVDQDASGNAHDIALAYASGIGGGRSGVIETTFREEVETDLFGEQAVLCGGLTALITAGFETLTEAGYAPEMAFFECMHEMKLIVDLIYEAGIANMRYSISNTAEYGDIVSGPRVINEESKKAMKAILDDIQSGRFVSKFVLDNRAGQPELKAARKRMAAHPIEQVGARLRKMMPWIASNKLVDKARN
B2: Se1_KARI^1A8: S. exigua KARI variant G60V, I95V, V99L (protein, UniProt D0WGK0 1-342, looked up, variant G60V I95V V99L)
Ketol-acid reductoisomerase …: MSVKTKEKEMAVTILYEQDVDPKVIQGLKVGIIGYGSQGHAHALNLMDSGVDVRVGLREVSSSWKTAEEAGLKVTDMDTAAEEADVIMVLVPDEVQPKLYQEHIAAHLKAGNTLAFAHGFNIHYGYIVPPEDVNVIMCAPKGPGHIVRRQFTEGSGVPDLACVQQDATGNAWDIVLSYCWGVGGARSGIIKATFAEETEEDLFGEQAVLCGGLVELVKAGFETLTEAGYPPELAYFECYHEMKMIVDLMYESGIHFMNYSISNTAEYGEYYAGPKVINEQSREAMKEILKRIQDGSFAQEFVDDCNNGHKRLLEQREAINTHPIETTGAQIRSMFSWIKKED
B3: Se1_KARI^13G6: S. exigua KARI variant G60V, I95A (protein, UniProt D0WGK0 1-342, looked up, variant G60V I95A)
Ketol-acid reductoisomerase …: B2 Ketol-acid reductoisomerase … with V95A, L99V
B4: Se1_KARI^14B7: S. exigua KARI variant Y35H, S63D, I95V (protein, UniProt D0WGK0 1-342, looked up, variant Y35H S63D I95V)
Ketol-acid reductoisomerase …: B2 Ketol-acid reductoisomerase … with Y35H, V60G, S63D, L99V
B5: Se1_KARI^AC1: S. exigua KARI variant S63D, I95A (protein, UniProt D0WGK0 1-342, looked up, variant S63D I95A)
Ketol-acid reductoisomerase …: B2 Ketol-acid reductoisomerase … with V60G, S63D, V95A, L99V
B6: Se1_KARI^1H1: S. exigua KARI variant R58P, S61C (protein, UniProt D0WGK0 1-342, looked up, variant R58P S61C)
Ketol-acid reductoisomerase …: B2 Ketol-acid reductoisomerase … with R58P, V60G, S61C, V95I, L99V
B7: Se1_KARI^2C6: S. exigua KARI variant L57V, R58P (protein, UniProt D0WGK0 1-342, looked up, variant L57V R58P)
Ketol-acid reductoisomerase …: B2 Ketol-acid reductoisomerase … with L57V, R58P, V60G, V95I, L99V
B8: Se1_NKR^Gen6-his6: S. exigua KARI variant S61D, S63D, I95V (protein, UniProt D0WGK0 1-342, looked up, variant S61D S63D I95V)
Ketol-acid reductoisomerase …: B2 Ketol-acid reductoisomerase … with V60G, S61D, S63D, L99V
modifications: His6 tag
notes: S. exigua KARI variant S61D, S63D, I95V
B9: Se1_KARI^MH9-his6: S. exigua KARI variant V99L (protein, UniProt D0WGK0 1-342, looked up, variant V99L)
Ketol-acid reductoisomerase …: B2 Ketol-acid reductoisomerase … with V60G, V95I
modifications: His6 tag
notes: S. exigua KARI variant V99L
B10: Se1_KARI^CD10-his6: S. exigua KARI variant Y35H (protein, UniProt D0WGK0 1-342, looked up, variant Y35H)
Ketol-acid reductoisomerase …: B2 Ketol-acid reductoisomerase … with Y35H, V60G, V95I, L99V
modifications: His6 tag
notes: S. exigua KARI variant Y35H
B11: Se1_KARI^EA8-his6: S. exigua KARI variant L57S (protein, UniProt D0WGK0 1-342, looked up, variant L57S)
Ketol-acid reductoisomerase …: B2 Ketol-acid reductoisomerase … with L57S, V60G, V95I, L99V
modifications: His6 tag
notes: S. exigua KARI variant L57S

Assay: KARI enzyme assay on cell lysates with NADH and NADPH as cofactors
Type: biochemical
Conditions: not given
Method: In this example, different KARI enzymes (Table 7) were screened for their activity with NADH and NADPH as cofactor. The enzymes were expressed in an S. cerevisiae strain by means of 2 micron plasmids carrying the KARI genes under the control of the S. cerevisiae TDH3 promoter. The transformants were cultivated in shake flask fermentations as described below and samples were taken after 44 h, centrifuged at 4000×g for 10 mins at 4° C. and the cell pellets were stored at −80° C. until analysis. The pellets were lysed by bead beating and the lysates were analyzed by KARI activity assay as described below using NADH and NADPH as cofactors.
Patched cells (or single colonies) grown on YPD+G418 plates at 30° C. were mixed into 3 mL YP+12% dextrose+200 mM MES, pH 6.5+G418, in 14 mL culture tubes and incubated at 250 RPM, 30° C. for ˜24 hours. The cells from the cultures were used to inoculate YP+12% dextrose+200 mM MES, pH 6.5+G418, in non-baffled flasks with a vented grey screw-caps at OD600 0.01. The cultures were incubated at 250 RPM, 30° C. for 24 hours, diluted 1:3 and incubated for another 20 h at 250 RPM, 30° C. Samples for enzyme assay pellets and protein quantification pellets were taken from each shake flask, and cell-free supernatant was used to measure glucose levels in shake flasks.
The assay and no substrate control reactions were performed in triplicate for each sample. The following stock solutions were prepared: 1 M potassium phosphate, pH 7, 0.1 M MgCl2, 100 mM DTT, 25 mM NADH or NADPH, 200 mM 2-acetolactate. The 2-acetolactate was made fresh each time by mixing 50 μL Ethyl-2-acetoxy-2-methylacetoacetate (EAMAA) with 990 μL water. Gradually 260 μL of 2 N NaOH was added in 10 μL increments to the EAMAA water mixture. After each addition the sample was vortexed for 15 seconds, and the procedure repeated until the entire 260 μL of 2 N NaOH was added. Afterwards the solution was mixed on an orbital shaker for 20 min (Krampitz, 1957). KARI reaction buffer (100 μL per reaction) was prepared to the following concentrations: 250 mM potassium phosphate, pH 7, 10 mM MgCl2, 1 mM DTT, 0.2 mM NADH or NADPH, 10 mM 2-acetolactate. For the no substrate controls, the 2-acetolactate was substituted with water. 10 μL of each lysate were transferred into a 96 well half area assay plate. The reaction was started with 90 μL of reaction buffer to each well using a multichannel pipette. The samples were mixed immediately. The samples were read at 340 nm every 10 s for 5 min.

Molecule | Specific Activity with NADH/Specific Activity with NADPH
B1 | 0.074

Same assay, conditions: empty vector control subtracted

Molecule | NADH-Dependent Specific Activity
B1 | 0.002 U/mg lysate

Assay: KARI assay of purified S. exigua KARI and variants with NADPH (Examples 6-9)
Type: biochemical
Conditions: not given
Method: (§1) S. exigua KARI activity or activities of its variants were assayed kinetically by monitoring the decrease in NADPH or NADH concentration by measuring the change in absorbance at 340 nm. An assay buffer was prepared containing 100 mM potassium phosphate pH 7.0, 1 mM DTT, 2.5 mM (S)-2-acetolactate, and 10 mM MgCl2 (final concentrations in the 1-mL assay, accounting for dilution with enzyme and cofactor). Fifty μL purified enzyme and 930 μL of the assay buffer were placed into a 1-mL cuvette. The reaction was initiated by addition of 20 μL NADPH or NADH (200 μM final concentration) for a general activity assay. Michaelis-Menten constants of the cofactors were determined with varying concentrations of NADPH (200-12 μM final) or NADH (200-6 μM final).

Molecule | kcat NADPH
B2 | 0.79 s⁻¹
B3 | 0.90 s⁻¹
B4 | 1.4 s⁻¹
B5 | 1 s⁻¹
B6 | 0.65 s⁻¹
B7 | 0.80 s⁻¹
B8 | 0.18 ± 0.00 s⁻¹

Same assay, conditions: cofactor NADPH

Molecule | U/mg NADPH (specific activity)
B9 | 0.34 U/mg
B10 | 0.19 U/mg
B11 | 0.25 U/mg
B2 | 0.32 U/mg
B3 | 0.37 U/mg
B4 | 0.56 U/mg
B5 | 0.4 U/mg
B6 | 0.26 U/mg
B7 | 0.33 U/mg
B8 | 0.07 ± 0.0 U/mg

Same assay, conditions: read-out: Km for cofactor NADPH

Molecule | Km
B3 | < 1 µM
B5 | 45 µM
B8 | > 1000 µM

Assay: KARI assay of purified S. exigua KARI and variants with NADH (Examples 6-9)
Type: biochemical
Conditions: not given
Method: as §1

Molecule | kcat NADH | kcat/Km ratio NADH/NADPH (cofactor specificity)
B2 | 0.65 s⁻¹ | 
B3 | 0.74 s⁻¹ | 0.03
B4 | 0.45 s⁻¹ | 
B5 | 0.5 s⁻¹ | 0.3
B6 | 0.50 s⁻¹ | 
B7 | 0.55 s⁻¹ | 
B8 | 1 ± 0.01 s⁻¹ | 87

Same assay, conditions: cofactor NADH

Molecule | U/mg NADH (specific activity)
B9 | 0.21 U/mg
B10 | 0.13 U/mg
B11 | 0.19 U/mg
B2 | 0.26 U/mg
B3 | 0.30 U/mg
B4 | 0.18 U/mg
B5 | 0.2 U/mg
B6 | 0.20 U/mg
B7 | 0.22 U/mg
B8 | 0.4 ± 0.01 U/mg

Same assay, conditions: read-out: Km for cofactor NADH

Molecule | Km
B3 | 34 µM
B5 | 68 µM
B8 | 47 ± 15 µM

Same assay, conditions: specific activity ratio

Molecule | Ratio NADH/NADPH (U/mg)
B9 | 0.64
B10 | 0.68
B11 | 0.76
B2 | 0.8
B3 | 0.8
B4 | 0.32
B5 | 0.5
B6 | 0.8
B7 | 0.7
B8 | 5.7
